Results: the supplement of paper PMC9233669
This sample holds only a part of the variants without activity.

How the values were obtained:
[1] = test system: biotinyl-Trp-oxazolone; experiment: self-aminoacylation, catalytic enhancement (BWO) (fold over background); higher = more active; k-Seq, kA / k0A0; sequences stand for … in GGGAAUGGAUCCACAUCUACGAAUUC…UUCACUGCAGACUUGACGAAGCUG
Method in brief: (§1)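 The uncatalyzed rate is the low-activity peak of a bimodal Gaussian fit, and catalytic enhancement is median kA divided by it. The kA values came from pseudo-first-order fits, with 1000 bootstraps, of per-sequence fraction reacted measured by streptavidin capture, triplicate qPCR and Illumina sequencing. Mutagenized RNA pools with a 21-nt variable region (0.43 μM) were reacted with each biotinyl-aminoacyl-oxazolone at 2–1250 μM in 50 μL HEPES/NaCl/KCl/MgCl2/CaCl2 buffer with 5% acetonitrile, pH 6.9–7.0, for 90 minutes at room temperature.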

[2] = test system: biotinyl-Met-oxazolone; experiment: self-aminoacylation, catalytic enhancement (BMO) (fold over background); higher = more active; k-Seq, kA / k0A0; sequences stand for … in GGGAAUGGAUCCACAUCUACGAAUUC…UUCACUGCAGACUUGACGAAGCUG
Method in brief: as §1

[3] = test system: biotinyl-Phe-oxazolone; experiment: self-aminoacylation, catalytic enhancement (BFO) (fold over background); higher = more active; k-Seq, kA / k0A0; sequences stand for … in GGGAAUGGAUCCACAUCUACGAAUUC…UUCACUGCAGACUUGACGAAGCUG
Method in brief: as §1

[4] = test system: biotinyl-Leu-oxazolone; experiment: self-aminoacylation, catalytic enhancement (BLO) (fold over background); higher = more active; k-Seq, kA / k0A0; sequences stand for … in GGGAAUGGAUCCACAUCUACGAAUUC…UUCACUGCAGACUUGACGAAGCUG
Method in brief: as §1

[5] = test system: biotinyl-Ile-oxazolone; experiment: self-aminoacylation, catalytic enhancement (BIO) (fold over background); higher = more active; k-Seq, kA / k0A0; sequences stand for … in GGGAAUGGAUCCACAUCUACGAAUUC…UUCACUGCAGACUUGACGAAGCUG
Method in brief: as §1

[6] = test system: biotinyl-Val-oxazolone; experiment: self-aminoacylation, catalytic enhancement (BVO) (fold over background); higher = more active; k-Seq, kA / k0A0; sequences stand for … in GGGAAUGGAUCCACAUCUACGAAUUC…UUCACUGCAGACUUGACGAAGCUG
Method in brief: as §1

| Sequence | self-aminoacylation [1] | self-aminoacylation [2] | self-aminoacylation [3] | self-aminoacylation [4] | self-aminoacylation [5] | self-aminoacylation [6] |
| --- | --- | --- | --- | --- | --- | --- |
| UUACUUCAAACAACCGGUCUG [Fam1A.1 aminoacylation ribozyme variant] | 1.51 | 1.03 | 1.38 | 1.22 | 1.36 | 1.15 |
| CUACUUCAAUCUAUCGGUCUG [Fam1A.1 aminoacylation ribozyme variant] | 0.936 | 0.902 | 1.28 | 0.836 | 0.888 | 0.907 |
| AGUACCCUCGUCAUCGAGUGA [Fam2.1 aminoacylation ribozyme variant] | 3.06 | 3.19 | 18.8 | 3.97 | 2.37 | 2.08 |
| CUACUUCAAACAAUAGGUCAG [Fam1A.1 aminoacylation ribozyme variant] | 0.568 | 0.602 | 1.19 | 0.577 | 0.688 | 0.812 |
| CCAAACUUUAAGCAAUCGGUC [Fam1B.1 aminoacylation ribozyme variant] | 0.664 | 0.869 | 0.824 | 0.846 | 1.11 | 0.993 |
| CCACGGUUCAAGCAAUCGGUC [Fam1B.1 aminoacylation ribozyme variant] | 2.21 | 1.02 | 2.64 | 1.07 | 1.08 | 1.22 |
| AAGUUUGCUAGUAGUUGCAAG [Fam3.1 aminoacylation ribozyme variant] | 1.1 | 1.04 | 0.949 | 0.791 | 0.985 | 0.737 |
| AUUACCCAGGUCAUCGAGUGU [Fam2.1 aminoacylation ribozyme variant] | 3.39 | 2.74 | 2.45 | 2.71 | 1.65 | 2.06 |
| AGUACCCUGGUCAGCGAGUGA [Fam2.1 aminoacylation ribozyme variant] | 7.2 | 4.42 | 36.4 | 6.63 | 3.51 | 3.45 |
| AAGGUUGCUAAUGGUCGCAAG [Fam3.1 aminoacylation ribozyme variant] | 0.994 | 0.949 | 1.68 | 0.828 | 1.06 | 1 |
| AUUACGCUGGUCAUCGAGAGA [Fam2.1 aminoacylation ribozyme variant] | 1.59 | 1.44 | 1.36 | 1.42 | 1.21 | 1.73 |
| CUACUUCAUACAAUCGAUCUG [Fam1A.1 aminoacylation ribozyme variant] | 0.601 | 0.653 | 0.752 | 0.505 | 0.657 | 0.806 |
| ACGUUUGCUAAGAGUCGCAAG [Fam3.1 aminoacylation ribozyme variant] | 1.44 | 1.12 | 2.95 | 1.65 | 1.35 | 1.44 |
| CUACUUCAAACUAUUGGUCUG [Fam1A.1 aminoacylation ribozyme variant] | 0.501 | 0.897 | 0.825 | 0.92 | 0.995 | 0.869 |
| CGACUACAAACAAUCGGUCUG [Fam1A.1 aminoacylation ribozyme variant] | 1.31 | 1.22 | 2.44 | 0.926 | 1.09 | 1.15 |
| CCACGCUUCAAGCAAUCGGUG [Fam1B.1 aminoacylation ribozyme variant] | 4.43 | 3.73 | 5.52 | 5.09 | 2.49 | 2.41 |
| CCAGACUUCAAGCGAUCGGUC [Fam1B.1 aminoacylation ribozyme variant] | 1.82 | 1.17 | 1.63 | 1.83 | 1.36 | 1.8 |
| CUUCUUCACACAAUCGGUCUG [Fam1A.1 aminoacylation ribozyme variant] | 0.81 | 0.749 | 0.889 | 0.775 | 0.714 | 0.782 |
| AUGCACCUAGGUCCUCGGGUG [Fam2.2 aminoacylation ribozyme variant] | 5.64 | 3.7 | 27.2 | 5.43 | 3.44 | 3.19 |
| AUUAGCCUGGUCCUCGAGUGA [Fam2.1 aminoacylation ribozyme variant] | 5.08 | 4.69 | 36.7 | 5.41 | 2.67 | 2.84 |
| CCACACUUCAAGCUAACGGUC [Fam1B.1 aminoacylation ribozyme variant] | 0.546 | 0.532 | 0.79 | 0.444 | 0.568 | 0.78 |
| AAGUUGGCGAAUAGUCGCAAG [Fam3.1 aminoacylation ribozyme variant] | 2.72 | 1.64 | 2.86 | 1.51 | 1.78 | 1.78 |
| CCACACUUUAAGCAAUAGGUC [Fam1B.1 aminoacylation ribozyme variant] | 0.444 | 0.592 | 1.07 | 0.578 | 0.619 | 0.683 |
| CCACUUCCAACAAUCGGUCUG [Fam1A.1 aminoacylation ribozyme variant] | 1.6 | 1.11 | 1.13 | 1.15 | 0.991 | 1.11 |
| AUUCACCAAGGUCGUCGGGUG [Fam2.2 aminoacylation ribozyme variant] | 2.29 | 2.2 | 12.9 | 3.05 | 2.09 | 2.58 |
| AUGGCCCUGGUCAUCGAGUGA [Fam2.1 aminoacylation ribozyme variant] | 76.5 | 82.9 | 729 | 84.6 | 27.1 | 29.1 |

| Sequence | self-aminoacylation [1] | self-aminoacylation [2] | self-aminoacylation [3] | self-aminoacylation [4] | self-aminoacylation [5] | self-aminoacylation [6] |
| --- | --- | --- | --- | --- | --- | --- |
| AAGUUAGCUAAUAGUCGCAAG [Fam3.1 aminoacylation ribozyme variant] | 2.21 | 1.6 | 5.25 | 1.52 | 1.78 | 1.49 |
| AUUACGCUGGUCCUCGAGUGA [Fam2.1 aminoacylation ribozyme variant] | 6.54 | 6.22 | 44.8 | 6.05 | 4.15 | 4.14 |
| AUUGCCCUAGGUCAUCGGGUG [Fam2.2 aminoacylation ribozyme variant] | 7.92 | 8.34 | 62.7 | 11.8 | 5.44 | 5.7 |
| AAUACCCUGGUGAUCGAGUGA [Fam2.1 aminoacylation ribozyme variant] | 6.66 | 5.35 | 13.1 | 6.6 | 3.23 | 3.02 |
| ACGUUUGCUCAUAGUCGCAAG [Fam3.1 aminoacylation ribozyme variant] | 3.57 | 1.88 | 2.58 | 2.49 | 1.89 | 1.91 |
| CCACACUUCAAGCGAUAGGUC [Fam1B.1 aminoacylation ribozyme variant] | 0.453 | 0.471 | 0.743 | 0.543 | 0.605 | 0.642 |
| AAUUUCGCUAAUAGUCGCAAG [Fam3.1 aminoacylation ribozyme variant] | 1.9 | 1.94 | 2.64 | 2.24 | 2.19 | 1.88 |
| AUGCACCUGGGUCAUCGGGUG [Fam2.2 aminoacylation ribozyme variant] | 3.63 | 4.33 | 21.2 | 3.18 | 3.37 | 3.8 |
| CUACUACAAACAAUCGGACUG [Fam1A.1 aminoacylation ribozyme variant] | 0.469 | 0.695 | 0.703 | 0.582 | 0.852 | 0.769 |
| AUUACCCUGGCCAUCGGGUGA [Fam2.1 aminoacylation ribozyme variant] | 11.8 | 8.01 | 49.1 | 9.65 | 3.8 | 6.42 |
| CUACUUCAAACCAUCGUUCUG [Fam1A.1 aminoacylation ribozyme variant] | 0.478 | 0.525 | 0.66 | 0.553 | 0.689 | 0.59 |
| AUUGAACUAGGUCAUCGGGUG [Fam2.2 aminoacylation ribozyme variant] | 5.03 | 4.33 | 30 | 4.62 | 3.36 | 3.28 |
| AGUCACCUAGGUCAUGGGGUG [Fam2.2 aminoacylation ribozyme variant] | 5.76 | 5.58 | 29.2 | 5.97 | 3.57 | 4.11 |
| CUACUUCAAGCAAUCGGGCUG [Fam1A.1 aminoacylation ribozyme variant] | 3.87 | 1.8 | 3.43 | 2.58 | 2.01 | 1.61 |
| AAUCCCCUGGUCAUCGAGUGA [Fam2.1 aminoacylation ribozyme variant] | 5.97 | 6.29 | 34.4 | 6.5 | 3.35 | 3.96 |
| AUUACCCUGAUCAUCGAGUAA [Fam2.1 aminoacylation ribozyme variant] | 0.877 | 1.33 | 1.09 | 1.02 | 1.25 | 1.32 |
| CCACCCUUCAAGCAAUCGGAC [Fam1B.1 aminoacylation ribozyme variant] | 0.664 | 0.991 | 0.866 | 0.712 | 1.04 | 1.31 |
| AUUCCCCUGGUAAUCGAGUGA [Fam2.1 aminoacylation ribozyme variant] | 7.35 | 6.36 | 37.7 | 5.9 | 3.09 | 3.28 |
| AAGCUUGCUAAUAGGCGCAAG [Fam3.1 aminoacylation ribozyme variant] | 1.2 | 1.12 | 1.46 | 1.66 | 1.38 | 1.16 |
| CUUCUUCAAACAAGCGGUCUG [Fam1A.1 aminoacylation ribozyme variant] | 0.713 | 0.925 | 0.813 | 1.04 | 1.09 | 0.958 |
| UAGUUUGCUAAUAGUCGCUAG [Fam3.1 aminoacylation ribozyme variant] | 1.08 | 1.01 | 1.68 | 1.13 | 1.18 | 1.13 |
| CCACACUUCAAGCAUUCGGCC [Fam1B.1 aminoacylation ribozyme variant] | 1.69 | 1.25 | 0.749 | 1.63 | 1.84 | 1.99 |
| CUACUUCAAAGCAUCGGUCUG [Fam1A.1 aminoacylation ribozyme variant] | 0.794 | 0.802 | 0.786 | 0.898 | 0.857 | 0.939 |
| CUUCUUCAAACAAUCGGUCUG [Fam1A.1 aminoacylation ribozyme variant] | 17.6 | 0.996 | 35.5 | 1.41 | 0.898 | 0.902 |
| CUUACCCUGGUCAUCGAGUCA [Fam2.1 aminoacylation ribozyme variant] | 0.547 | 0.897 | 0.627 | 0.705 | 0.742 | 1.07 |
